{
  "source": "paper doi:10.1101/2023.06.21.545984",
  "key": {"[1]": {"molecular_target": "Acinetobacter baumannii 118362 Family 2A encapsulin shell protein (J517_0527) (Acinetobacter baumannii 118362)", "assay": "cryo-EM structure"}, "[2]": {"molecular_target": "free Acinetobacter baumannii 118362 cysteine desulfurase (construct RB30, C-terminally His6-tagged, tag removed) (Acinetobacter baumannii 118362)", "assay": "SEC"}, "[3]": {"molecular_target": "degraded free cysteine desulfurase that has lost the N-terminal CLD (Acinetobacter baumannii 118362)", "assay": "SEC"}},
  "data": [
    {"substance": "Acinetobacter baumannii 118362 Family 2A encapsulin shell protein (J517_0527) (natural protein)", "values": [
      {"measurement": "stoichiometry N", "setting": "[1]", "result": 60, "unit": "subunits"}
    ]},
    {"substance": "Acinetobacter baumannii 118362 cysteine desulfurase (J517_0528), co-expressed from the four-gene operon (enzyme)", "values": [
      {"measurement": "stoichiometry N (CD cargo proteins per encapsulin shell)", "setting": "[1]", "result": "< 24"}
    ]},
    {"substance": "free Acinetobacter baumannii 118362 cysteine desulfurase (construct RB30, C-terminally His6-tagged, tag removed) (enzyme)", "values": [
      {"measurement": "stoichiometry N", "setting": "[2]", "result": 2}
    ]},
    {"substance": "degraded free cysteine desulfurase that has lost the N-terminal CLD (domain or fragment)", "values": [
      {"measurement": "stoichiometry N", "setting": "[3]", "result": 2}
    ]}
  ]
}
